Tested on: rigid clots (pooled rabbit plasma, fresh rabbit blood cells, thrombin)
Test: Sonothrombolysis of aged and rigid clots, 1 MHz pulsed ultrasound in a Mylar flow chamber
Conditions: 0.1 mg/mL of tPA and/or MBs at about 0.5-2.5×10^8 MB/mL
Method: To assess the effect of CPDL and/or degradable starch nanoparticles on the efficacy of sonothrombolysis, the following experiment was conducted. Rigid clots were formed by mixing pooled rabbit plasma with fresh rabbit blood cells and 30 U/mL of thrombin. The clots were incubated at 37° C. in glass tubes for 24 h followed by curing at 5° C. for 24 h. The total clot volumes and mass densities of each main clot were measured, and then 9-11 mg pieces were cut from the main clot. Each clot piece was weighed and then insonated with 1 MHz, pulsed ultrasound in a Mylar flow chamber through which fresh rabbit serum containing tPA and/or microbubbles (MBs) were introduced continuously. Sonothrombolysis efficacy was quantified as the % of clot mass lysed in 15 min. A stable nanoemulsion of CPDL at a concentration ranging from about 0.003-0.06% w/V, and/or 50-200 nm degradable starch nanoparticles were added to the system to enhance sonothrombolysis efficacy.

B1: tPA: tissue plasminogen activator (protein, UniProt P00750 36-562, looked up)
Tissue-type plasminogen …: SYQVICRDEKTQMIYQQHQSWLRPVLRSNRVEYCWCNSGRAQCHSVPVKSCSEPRCFNGGTCQQALYFSDFVCQCPEGFAGKCCEIDTRATCYEDQGISYRGTWSTAESGAECTNWNSSALAQKPYSGRRPDAIRLGLGNHNYCRNPDRDSKPWCYVFKAGKYSSEFCSTPACSEGNSDCYFGNGSAYRGTHSLTESGASCLPWNSMILIGKVYTAQNPSAQALGLGKHNYCRNPDGDAKPWCHVLKNRRLTWEYCDVPSCSTCGLRQYSQPQFRIKGGLFADIASHPWQAAIFAKHRRSPGERFLCGGILISSCWILSAAHCFQERFPPHHLTVILGRTYRVVPGEEEQKFEVEKYIVHKEFDDDTYDNDIALLQLKSDSSRCAQESSVVRTVCLPPADLQLPDWTECELSGYGKHEALSPFYSERLKEAHVRLYPSSRCTSQHLLNRTVTDNMLCAGDTRSGGPQANLHDACQGDSGGPLVCLNDGRMTLVGIISWGLGCGQKDVPGVYTKVTNYLDWIRDNMRP
  efficacy of sonothrombolysis for more rigid and aged clots: reduced markedly
